Experimental data: the nanobody polyreactivity screen of Harvey et al. (2022)

Assay: yeast display, Sf9 membrane polyspecificity reagent, FACS + sequencing; frameworks hold sequencing errors
Method in brief: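 After 36–48 hours of galactose induction, yeast (Saccharomyces cerevisiae BJ5465) displaying a synthetic nanobody library were stained at 4 °C for 1 hour with 10% biotinylated, detergent-solubilized Sf9 membrane reagent. Streptavidin microbeads enriched the stained cells before FACS sorting into low and high (top ~1%) gates on anti-HA and streptavidin fluorescence. Each clone's polyreactivity label reflects its gate of origin.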

| Sequence | polyreactivity (PSR sort gate) |
| --- | --- |
| QVQLLESGGGLVQAGGSLRLSCAASGSTFDWYVMGWYRQAPGKERELVAAINQGSGSTYYADSVKGRFTISRDNAKNTVYLQMNSLKPEDTAVYYCAADRYGAGYLYWPYDYWGQGTQVTVSS | low polyreactivity |
| QVQLLESGGGLVQAGGSLRLSCAASGSTFGYYTMGWYRQAPGKERVLVAGISSGGSTNYADSVKGRFTISRDNAKNTVYLQMNSLKQEDTAVYYCDTGSYSYHRGYVTYARFGYWGQGTQVTVSS | low polyreactivity |
| QVQLLESGGGLVQAGGSLRLSCAASGSTLARYTMGWSRQAPGKERELVATIDFGGVNTYYADSVKGRFTISRDNAKNTVYLQMNSLKPEDTAVYYCAVDNPFIWFFGPDEYWGQGTQVTVSS | low polyreactivity |
| QVQLLESGGGLVQAGGSLRLSCAASGSTLKLNAMGWYRQAPGKDRELVAAITRSGGSTNYADSVKGRFTISRDNAKNTVSLQMNSLKPEDTAVYDCAADVLWDEFGYWGQGTQVTVSS | low polyreactivity |
| QVQLLESGGGLVQAGGSLRLSCAASGSTLLQYAMGWYRQAPGKEREFVAAISASGARTYYADSVKGRFTISRDNAKNTVYLQMNSLKPEETAVYYCAALTQRSSFDYWGQGTQVTVSS | high polyreactivity |
| QVQLLESGGGLVQAGGSLRLSCAASGTNFDYYLMGWYRQAPGKERELVAAISWSGASTYYADSVKGRFTISRDNAKNTVYLQMNSLKPEDSAVYYCAADYCVKTLIDYDYWGEGTQVTVSS | low polyreactivity |
| QVQLLESGGGLVQAGGSLRLSCAASGYTFARYAMGWYRQAPGQERELVAAITSSGGSTYYADSVKGRFTISRDNAKNTVYLQMNSLKPEDTAVYYCNARGFQKSDPRGYLILNYWGQGTQVTVSS | high polyreactivity |
| QVQLLESGGGLVQAGGSLRLSCAASRSTFPGYAMGWYRQAPGKETELVAAITWSGVTTYYADSVKGRFTISRDNAKYTVYLQMNSLKPEDTAVYYCATGTLYSDGAIYGYWGQGTQVTVSS | low polyreactivity |
| QVQLLESGGGLVQAGGSLRLSCASSGRTFVRYGMGWSRQAPGKERELVAAITGSGSRTYYADSVKGRFTISRDNAKNTVYLQMNSLIPKDTAVYYCAGRGQGGAGDPRYPVYYWGQGTQVTVSS | high polyreactivity |
| QVQLLESGGGLVQAGGSLRLSCASSGRTYWYYAMGWYRQAPGKERELVATITRSTGSTYYADSVKGRFTISRDNAKNTGYLQMNSLKPEDTAVYYCARLYYFNGDYWGQGTQVTVSS | high polyreactivity |
| QVQLLESGGGLVQAGGSLRLSCASSGSIFFRNAMVWYRQAPGKEREYVAAITGSSVSTYYADSVKGRFTISRDNAKNTVYLQMNSLKPEDTAVYYCAVRKWIGYNPYDDWGQGTQVTVSS | high polyreactivity |
| QVQLLESGGGLVQAGGSLRLSCMASGSILGDRMSWYRQAPGKEHELVATIYDGGITCYADSMKGRFTISRDNAKNTVYLQMNSLRPEDTAVYYCGASFEGYRYHVYCGQGTQVTVSS | low polyreactivity |
| QVQLLESGGGLVQAGGSLRVSCAASGFTFSRNVMGWYRQAPGKERELVAAITSGSTYYADSVKGRFTISRDNAKNTVYLQMNRLKPEDTAVYYCAKRGRLRNYDYWGQGTQVTVSS | high polyreactivity |
| QVQLLESGGGLVQAGGSRRLSCASSGITFAFYAMGWYRQAPGKESELVAAISWSGTRTYYADSVKGRFTISRDNAKNTVYLQMNRLKPEDTAVYYCAAVYQAGDKLYDYWGQGTQVTVSS | low polyreactivity |
| QVQLLESGGGLVQARGSLRLSCAASARTIFKNAMAWYRQAPGKERELVARISWNGGDSTYYADSVTGRFTISRDNAKNTVYLQMNSLKPEDTAVYSCAADTSYRPGGSRQGYGYWGQGTQVTVSS | low polyreactivity |
| QVQLLESGGGLVQPGGSLRLSCAASGSTFDSYVKGWYRKAPGKERELVAANSSDDSTYYADSVKGRFTISRDNAKNTVYLQMISLKPEDTAVYYCAATNFRDYYCSWNYYYWGQGTQVTVSS | low polyreactivity |
| QVQLLESGGGLVQPGGSLRLSCAASGSTFIGYAMGWYRQAPGKETELVAAISWSGGRTYYADSVKGRFTISRDNAKNTVYLQMNSLKAEDTAVYYCNTVPYRISVQFNYWGQGTQVTVSS | high polyreactivity |
| QVQLLESGGGLVQPGGSLRLSCAASGSTFYDYAMGWYRTAPGKEREFVADIYSNGGSTYYAHSVKGRFTISRDNANYTVYLQMNSLKPEDTAVYYCASVLRPRQGRRYDYWGQGTQVTVSS | low polyreactivity |
| QVQLLESGGMVQAGGLRLSCAASGSVSYQEAMGWYRQAPGKERELVATISFGANTNYADSVKGRFTISRDNAKNTVYLQMNSLKPEDTAVYYCAAESLFYDYYGYWGQGTQVNVSS | low polyreactivity |
| QVQLLESGGRLVQAGGSLRLSCAASGSTYNQYDMGWYRQAPGKERELVAAISTNGGRTYYADSVKGRFTISRDNAKNTVYLLMNSLKPEYTAVYYCNRAGRGRWSNMDHWGQGTQVTVSS | high polyreactivity |
| QVQLLESGRGLVQEGGSLRLSCAASGFTFTAYAMGWYRQAPGKERELVAVISVRGGRTRYADSVKGRFTLSRDNAKNTVYLQMNSLKPEDTAVYYCDARYRPYSGSPQYDYWGQGTQVTVSS | high polyreactivity |
| QVQLLESGVCLVQAGGSLRLSCAASGFTFGVYAMGWYRQAPGKERELVAAISTTVGSTYYADSVKGRFTISRDNAKKTVYLQMNSLKPEDTAVYYCAAEYTGYINYYIYEYWGQGTQVTVSS | low polyreactivity |

| Sequence | polyreactivity (PSR sort gate) |
| --- | --- |
| QVQLLESRGGLVQAGGSLRLSCPASGITFSRCAMGWYRQAPGKERELVAAITSGGRTNYADSVKGRFTISRDNATNTVYLQMISLKPEDTAVYYCAASYYYLSWRMDYWGQGTQVTVSS | high polyreactivity |
| QVQLLESWGGLVQAGGSLRLSCAASGLIFYRNAMGWYRQAHGKERELVAAISVSGGSTYYADSVKGRFTISRDNAKNTVYLQMNRLKPEDTAVYYCAAKTWRSRGKEMDYWGQGTQVNVSS | high polyreactivity |
| QVQLLETGGGLVQAGASLRLSCAASGSTFEDNAMGWYRQAPGKERELVAAITSGGNTYYADSVKGRFTIARDNAKNTVYLPMNSLKPEDTAVYYCNAVPFYYVFDYWGQGTQVTVSS | low polyreactivity |
| QVQLLETGGGLVQAGGSLRLSCAASGSILRWYVRGWYRQAPGKERELVADIDSGGSTNYADSVKGRFTISRDNAKNTVFLQMNSLKPEDTAVYYCASDVPSRSRYGVYRRDGMDYWGQGTQVTVSS | low polyreactivity |
| QVQLLETGGGLVQAGGSLRLSCAPSGGIFGFNAMGWYRQAPGKERELVADISDGVRTNYADSVKGLFTISRDNAKTTVYLQMNRLKPEDTAVYYCATDGLFYVDGSWTLGYWGQGTQVTVSS | low polyreactivity |
| QVQLLETVGGLVQAGGSLRLSCASSGFTFGYYTMGWYRQAPGKERELVAAISSSGGRTYYADSVKGRFTISRDIAKNTVYLQMISLKPEDTALYYCNVYYISTDLYYWGQGTQVTVSS | high polyreactivity |
| QVQLLQTGGGLVQAGGSLRLSCAASGRIFVVNAMGWNRLAPGKEREMVADISSGVSTNYADSVKGRFTISRDNAKNTVYLQMNILKPEDTALYYCNSRFRFRYKFPSRNSWGQGTLVTVSS | high polyreactivity |
| QVQLLVTGGGLVQAGGTLRISCAASGSIFYSYAMGWYRQSPGKERELVAAITGGGSTNYADSVKGRFTISLDNAKNTVYLQMNSLKPEDTAVYYCATDLYPIGAVIRYDYWGQGTQVTVSS | low polyreactivity |
| QVQLQDSGGGLEQAGGSLRMSCAANGNIFDADIVGRYRQAQGKKRELVASITDGGITNYADSVKGRFTISRDNAKYTVYLQMNSQNPEDTAVYYCAAIAYPDIPTYFDYDSDFFYWGQGTQVTVSS | high polyreactivity |
| QVQLQDSGGGLVQAGGSLRLSCAASGTIFWYSDLGWYRQAPGKERKFVAGIGFGSNSNFADSVRGRFTISRDNAKNTVYLQMNSLKPEDTAVYYCAAVWFDYSTHRYWGQGTQVTVSS | high polyreactivity |
| QVQLQDSGGRLVQAGGSLRLSCAASGYIFGSCSMGWFRQSPGKVRELVATINNGSSTYYADSVKGRITISRDNAKNSVYLQMNSLKPEDTAVYYCAVSLYRLTFFYYWGQGNQVTVSS | high polyreactivity |
| QVQLQECGGGLVQAGGRLRLSCAASGNIFDADIMGWYRQAPGKERELVASVTDGGSTNYADSVKGRFTISRDNAKNTVYLQMISLTPEDTAVYYCAAIVYPDILTYFDYDYDYFYWGQGTQVTVGS | low polyreactivity |
| QVQLQECGGGLVQEGGSLRLSCAASGTYSNSVKWLYCQAPGKEREFVATIGVGGSTNYADSVKGRFTISRDIAKNSVYLQMNSLKPDDTAVYHCSAYGAASNFHYYRGQGTQVTVSS | low polyreactivity |
| QVQLQEGGGLVQAGGSLRLSCAASGYISSPPAMGWYRQAPGKERAFVATIADGTSTYYADSVKGRFTISRDNAKNTVYLQMNSLKTEDTEVYYCAAAYNTEFYLSYWGQGTQVTVIS | high polyreactivity |
| QVQLQEGGGLVQAGGSLRLSCAASGYISSRPAMGWYRQAPRKERAFVATIADGTSTYYADSVKGRFTISRDNAKNTVYLQMNSLKPEDTAVYYCAAAYNTEFYLSYWGQGTQVTVSS | high polyreactivity |
| QVQLQEGRGLVQAGGSLRLSSAASGYISSRPAMGWYRQAPCKERSFVATIADGTSTYYADSVKGRFTISRDNAINTVYLQMNSLKPEDTAVYYCAAAYNTEFYLSYWGQGTQVTVSC | high polyreactivity |
| QVQLQERGDGLLQAVGSLRLSFAESGYISGYYYMGWYRQAPGKDRELVAGIDAFGSSTNYADCVKGRFTISRDNAKNTVYLEMNSLKPEDTAVYYCAASPDGERLFSYWGQGTQVTVSS | low polyreactivity |
| QVQLQERGGGLVQAGGSLCLSCAASGTIFFDGDMGWYRQAPGKEREFVAAINPGGSAYYADSVKGRLPLAAITHTVYLQMNSLKPEDTAVYYCAAKLFDVYGYYYWGQGTHVTVSS | low polyreactivity |
| QVQLQERGGGLVQAGGSLCLTCEASGTIFYDGDMGLYRQAPGKEREFVAAINPGGSAYYADSVKGRLPLAAITHTVYLQMFSLKPEDTAVYYCAAEQITGWSRVWVSWYDYWGQGTQVTVSS | low polyreactivity |
| QVQLQERGGGLVQAGGSLRLSCAASGIIYADGFMGLYRQAPGKELEFVANITGGGTSNYADSVKGGFTISRDNAKNTVYLQMNSLKPEDTAVYFCAVYFAWTIGFTYWGQGTQVTVSS | high polyreactivity |
| QVQLQERGGGLVQVGGSQRLSCAASGNIFYNYAMGWYRHAQGKEREFDATINHGTSINYADSVKGRFTISRDNAKNSVYLQMNSLKPEDTAVYYCAADLSWTDNLFYWGQGTQVTVSS | low polyreactivity |
